In PMC3954793, “SHP-2 Binds to Caveolin-1 and Regulates Src Activity via Competitive Inhibition of CSK in Response to H2O2 in Astrocytes” (PLoS ONE, 2014):

Tests used:
CSK = CSK (UniProt P41240); assay: PepSPOT peptide array overlay; details: reference: nonphosphorylated 13-mer peptides; sites Y14
SHP-2 = SHP-2 (UniProt Q06124); assay: PepSPOT peptide array overlay; details: reference: nonphosphorylated 13-mer peptides; sites Y14

Q: With “caveolin-1 13-mers within 1-28 (from UniProt Q03135) pY14 13-mer peptides” as the substance, how does the “binding against the reference” value (CSK) read?
A: stronger

Q: What about the “binding against the reference” value (SHP-2) of the same substance?
A: stronger
